This note sets out measurements from article PMC7494997.

The target of one test is Human PSGL-1-Fc (human) (UniProt Q14242). In words: ELISA; binding curves of the VISTA-Fc mutants E125A and F62A (Supplementary Fig. S6D, S6E); conditions not given. On the technique in general: In an ELISA, binding on a coated surface is turned into a signal by an enzyme label.
In the next test the target is hVSIG3-Fc (human) (UniProt Q5DX21). The test is described as above.
Sequence of hVSIG3-Fc (human) (Q5DX21 23-241): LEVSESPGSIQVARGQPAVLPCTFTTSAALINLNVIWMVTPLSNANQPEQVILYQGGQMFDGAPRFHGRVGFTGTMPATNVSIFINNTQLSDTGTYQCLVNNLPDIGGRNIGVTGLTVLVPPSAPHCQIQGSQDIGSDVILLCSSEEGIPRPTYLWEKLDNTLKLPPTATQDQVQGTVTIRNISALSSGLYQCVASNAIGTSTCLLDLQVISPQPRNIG

Sequence of Human PSGL-1-Fc (human) (Q14242 42-320): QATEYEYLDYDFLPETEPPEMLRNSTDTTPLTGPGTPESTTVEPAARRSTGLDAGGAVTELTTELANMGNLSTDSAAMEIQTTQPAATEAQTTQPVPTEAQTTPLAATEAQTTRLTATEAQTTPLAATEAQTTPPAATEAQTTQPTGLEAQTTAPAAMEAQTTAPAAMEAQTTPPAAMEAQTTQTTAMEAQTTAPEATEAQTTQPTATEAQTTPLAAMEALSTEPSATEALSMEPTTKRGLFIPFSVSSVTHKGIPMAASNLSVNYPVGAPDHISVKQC

As to soluble hVISTA-Fc E125A (Fc fusion), the fold affinity over the WT VISTA interaction with Human PSGL-1-Fc (human) was > 2 fold.
soluble hVISTA-Fc F62A (Fc fusion): the fold affinity over the WT VISTA interaction with hVSIG3-Fc (human) is > 2 fold.
